# B1: M-CSF: M-CSF protein (ab56288, ABCAM), macrophage colony stimulating factor (protein, UniProt Q8JZQ0 33-566, looked up)
# Macrophage colony-stimulating …: EVSEHCSHMIGNGHLQILQQLIDSQMETACLIEYKFVDQEQLDDPVCYLKKAFVLVQVIIEETMRFKDNTPNANATERLQELSMKLNSCFIKDYKEQNEACVQTYKESPLRLLEKIKNFFNETKNFLEKDWNIFSKNCNDSFAKCSSRDVVTKPDCNCLYPKATPSSDLASASPHQPPAPSMAPLADLAWDDSQRTEGSSLLPSDLPLRIEDPGSAKQRPPRSTCQTLESTEQPNHEDPQPHPSAGAPIPGVEDIIESSMGTNWVLEEASGEASEGFLTQERKFSPSNPVGGSIQAETDRPWARSASSPFPKLTEDQQPTNITDTPLTEVNPMRPTGQTLNNTPEKTDGSSTLREDQQEPRSPHFATLNPQRVGNSATPYAKLLPPKSHSWGIVLPLGELEGKKSTRDRRSPAELKGGPASEGAARPVAQSTRDRRSPAELKGGPASEGAARPVARFNSIPLTDTGSSIQDPQTSAFVFWVLGIILVLLAVGGLLFYSWKRRSHRDPRTLDSSVGRPEGSSLAQDEDRQVELPV
# Tested on: CD4+CD25- T cells stimulated with allogeneic pDCs
# Assay: MLR: suppression of CFSE-labelled CD4+CD25- T cell proliferation in response to allogeneic pDCs
# Assay type: cell-based, rat
# Conditions: dose dependent, 0.1 to 2 μg/ml, 6 days of culture
# Protocol: FIG. 3: Detection of IL-34 using an AAV-IL-34 and inhibition of allo-T cell responses. A. Supernatants of AAV-IL-34 or AAV-GFP-transduced cells were tested for suppression of CD4^+CD25^− T cell proliferation in response to allogeneic pDCs and analysed by flow cytometry for CFSE dilution after 5 days of culture. CD8^+ Tregs were used as positive control of suppression. n=3 in duplicates; Results are expressed as mean±SEM of normalized percentage of proliferation vs. proliferation in the absence of CD8^+ Tregs (100%). […] B. Serial dilution of sera from AAV-IL-34 or AAV-GFP-treated rats or naive animals were tested for suppression of CD4^+CD25^− T cell proliferation in response to allogeneic pDCs and analysed by flow cytometry for CFSE dilution after 5 days of culture. CD8^+ Tregs were used as positive control of suppression. n=3 in duplicates; Results are expressed as mean±SEM of normalized percentage of proliferation vs. proliferation in the absence of CD8^+ Tregs (100%). *, p<0.01; **, p<0.001; ***, p<0.0001 vs. sera from naïve animals.
# FIG. 6: M-CSF mediated dose dependent suppression of anti-donor effector CD4^÷CD25^− T cells responses. (A) FACS Aria-sorted CD8^+CD45RC^low Tregs from spleen of naive or 120 days old AdCD40Ig-treated recipients (n=6) were analysed for M-CSF mRNA expression by quantitative RT-PCR. *p<0.05. […]
molecule,measurement,value
B1,suppression of CD4+CD25- T cells proliferation,up to 93.5%
